The record followed here is US20250263500A1.

The assay has as its target CD24 (human) (UniProt P25063). The assay can be described thus: cell-based or functional assay.

CD24 (human), sequence (P25063 27-59): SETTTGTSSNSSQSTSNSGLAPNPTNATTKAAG

The substance negative control antibody (mouse IgG) came in with a Phagocytosis rate % (A549 tumor cells by human PBMC-derived M2 macrophages, antibody 5 µg/ml) of 2.7% and a Phagocytosis rate (%) (MCF-7 tumor cells by human PBMC-derived M2 macrophages, antibody 5 µg/ml) of 1.3%.
